Measured values as given in US11999782B2, “Therapeutic agents for the treatment of diseases associated with undesired cell proliferation” (Fundació Privada Institutció Catalana de Recerca I Estudis …, priority 2009, dated 2024).

Tests used:
[1] = tested on: LIF expression in GBM neurospheres; assay: LIF mRNA by qRT-PCR in GBM neurospheres; assay type: cell-based, human; conditions: 100 pM, 3 hours, medium without serum
Protocol: FIG. 3. TGFβ induces the expression of LIF in PCTC and GBM neurospheres. (A) PCTC cells of the 11 samples of the indicated GEM (GBM1-11) were treated with 100 pM TGFβ1 for 3 hours in medium without serum or left untreated, and the expression levels of LIF were determined by means of qRT-PCR. The g-actin was determined as an internal normalization control. (B) GBM neurosphere cells were treated as in A and the expression levels of LIF were determined by means of qRT-PCR as in A. (C) GBM neurospheres were incubated with 100 pM TGFβ1 and/or 2 μM TβRI inhibitor for 3 hours in medium without serum and the mRNA levels of LIF were determined by means of qRT-PCR as in A. (D) GBM1 neurospheres were incubated with 100 pM TGFβ1, TGFβ2 and TGFβ3 for 3 hours in medium without serum and the mRNA levels of LIF were determined by means of qRT-PCR as in A. (E) The levels of LIF protein secreted were determined by means of ELISA in GBM1 neurospheres after 48 hours of treatment with 100 pM TGFβ1.
The U373MG and A172 cells were a generous gift from J. Rich and D. Bigner and were cultured in DMEM with 10% fetal bovine serum (FBS). The primary culture of tumor cells (PCTC) and the GBM neurospheres were generated as described (Bruna et al., (2007) Cancer Cell 11, 147-160; Gunther et al., (2008) Oncogene. May 1; 27(20):2897-909). Briefly, the samples of tumors were processed in the 30 minutes after the surgical resection. The ground pieces of the samples of human gliomas were digested with 200 U/ml collagenase I (Sigma) and 500 U/ml of DNase I (Sigma) in PBS for 2 hours at 37° C. and with constant vigorous stirring. The suspension of individual cells was filtered through a 70 μm cell filter (BD Falcon) and washed with PBS. Finally, the cells were resuspended and subsequently cultured in DMEM with 10% FBS, for the culture of PCTCs, or in neurosphere medium in the case of the GBM neurospheres. The neurospheres of normal human neuroprogenitors were generated from human embryonic cerebral cortex tissue (12-16 weeks after the conception) collected after voluntary abortions. The samples were processed and cultured as described (Poltavtseva et al. (2002) Brain Res Dev Brain Res 134, 149-154). The neurosphere medium consists of neurobasal medium (Gibco) supplemented with B27 (Gibco), L-glutamine (Gibco), penicillin/streptomycin, and growth factors (20 ng/mL EGF and 20 ng/mL FGF-2 (Peprotech)).
(§1) qRT-PCR was performed using Taqman probes from Applied Biosystems, according to the manufacturer's recommendations. The reactions were carried out in a ABI 7000 sequence detector (Perkin Elmer) and the results were expressed as the fold change calculated by means of the DDCt method relative to the control sample or the first quantified sample. The ribosomal unit of 18S or β-actin were used as internal normalization controls.
It was decided to investigate the molecular mechanisms responsible for the effect of TGFβ on GICs. Gene responses to TGFβ in GBM cells which could be involved in the regulation of the self-renewal of GICs were investigated. In a previous work (Bruna et al., 2007), transcriptome analyses were conducted in the U373MG glioma cell line treated with TGFβ and/or a TβRI inhibitor. LIF was among the 63 gene responses to TGFβ in U373MG which were dependent on the activity of TβRI. […] A panel of PCTCs derived from 11 different human GBMs was treated with TGFβ for 3 hours and the levels of LIF mRNA were determined.

[2] = tested on: LIF expression in normal human neuroprogenitors; assay: LIF mRNA in neurospheres of normal human neuroprogenitors; assay type: cell-based; conditions: 100 pM, 3 hours, compared with GBM neurospheres
Protocol: FIG. 8. Effect of TGFβ on the capacity of self-renewal of normal human neuroprogenitors. (A) Immunocytochemistry of the indicated markers was performed in human neuroprogenitor neurospheres. (B) Neurospheres of the sample of GBM1 and of human neuroprogenitors were incubated with the indicated members of the 100 pM TGFβ family for 3 hours and the mRNA levels of LIF were determined. (C, D) Neurosphere cells of normal human neuroprogenitors were incubated in the same conditions that have been described above in FIG. 1D in the presence of 100 pM TGFβ1 or 20 ng/ml LIF for 7 days and the number of newly formed neurospheres (C) and the number total of cells (D) were determined.
The U373MG and A172 cells were a generous gift from J. Rich and D. Bigner and were cultured in DMEM with 10% fetal bovine serum (FBS). The primary culture of tumor cells (PCTC) and the GBM neurospheres were generated as described (Bruna et al., (2007) Cancer Cell 11, 147-160; Gunther et al., (2008) Oncogene. May 1; 27(20):2897-909). Briefly, the samples of tumors were processed in the 30 minutes after the surgical resection. The ground pieces of the samples of human gliomas were digested with 200 U/ml collagenase I (Sigma) and 500 U/ml of DNase I (Sigma) in PBS for 2 hours at 37° C. and with constant vigorous stirring. The suspension of individual cells was filtered through a 70 μm cell filter (BD Falcon) and washed with PBS. […]
as §1, with “The ribosomal unit of 18S or β-actin were used as internal normalization controls.” left out
It was decided to assess whether this effect was specific to tumor cells or was also present in normal neuroprogenitor cells. […] First, it was determined if TGFβ induced LIF in normal human neuroprogenitors. […]

[3] = tested on: GBM neurospheres; assay: Differentiation of GBM neurospheres (neuroprogenitor markers, adhesion); assay type: cell-based, human; conditions: GBM1 neurospheres, 7 days without EGF or FGF, 100 pM TGFβ1 or 20 ng/ml LIF
Protocol: FIG. 7. TGFβ and LIF prevent the differentiation of GBM neurospheres. (A) Immunocytochemistry of the indicated proteins was performed in neurospheres derived from GBM1 treated with 100 pM TGFβ1 or 20 ng/ml LIF for 7 days in the absence of growth factors and the last 3 days on slides coated with poly-L-lysine. (B) The mRNA levels of Musashi-1 (Msi-1), Sox2 and Nestin were determined in GBM1 neurospheres after 7 days of the indicated treatments without growth factors. The RNA levels of 18S were used as an internal normalization control.
The immunocytochemistry of neurospheres and differentiated neurospheres was performed as described (Geshwind et al., 2001) using the following antibodies: anti-nestin (Chemicon), anti-GFAP (Dako), anti-TuJ1 (Chemicon), anti-04 (Chemicon), anti-Sox2 (Chemicon), anti-α-tubulin (Sigma). The nuclei were counterstained with 4′,6-diamino-2-phenylindole (DAPI).
as §1
The neurospheres derived from GBMs grown in the absence of growth factors and seeded in poly-L-lysine-coated plates tend to differentiate losing the expression of the neuroprogenitor markers Musashi-1, Sox2 and Nestin, and being adhered to the culture plate. It was decided to evaluate the effect of TGFβ and LIF on this differentiation process. The neurospheres were cultured in the presence of TGFβ or LIF without EGF or FGF for 7 days and subsequently processed for immunohistochemical staining and qRT-PCR assays for determining the levels of the neuroprogenitor markers Musashi-1, Sox2 and Nestin.

B1: TGFβ3: TGFβ3 (R&D Systems), member of the TGFβ family (protein, UniProt P10600 301-412, looked up)
Transforming growth factor …: ALDTNYCFRNLEENCCVRPLYIDFRQDLGWKWVHEPKGYYANFCSGPCPYLRSADTTHSTVLGLYNTLNPEASASPCCVPQDLEPLTILYYVGRTPKVEQLSNMVVKSCKCS
B1 was tested, and the “LIF transcript in neurospheres derived from patients” value [1] was “capable of inducing LIF”, the “induction of LIF mRNA in normal human neuroprogenitor neurospheres” value [2] was “did not induce LIF” and the “expression of Musashi-1, Sox2 and Nestin (immunocytochemistry, qRT-PCR)” value [3] was “maintained the expression”.
